# Results: IntAct's records for PubMed 14551211
# B1: ATP-dependent DNA helicase II subunit 2 (Saccharomyces cerevisiae), Q04437 (parent)
# chain: MSSESTTFIVDVSPSMMKNNNVSKSMAYLEYTLLNKSKKSRKTDWISCYLANCPVSENSQEIPNVFQIQSFLAPVTTTATIGFIKRLKQYCDQHSHDSSNEGLQSMIQCLLVVSLDIKQQFQARKILKQIVVFTDNLDDLDITDEEIDLLTEELSTRIILIDCGKDTQEERKKSNWLKLVEAIPNSRIYNMNELLVEITSPATSVVKPVRVFSGELRLGADILSTQTSNPSGSMQDENCLCIKVEAFPATKAVSGLNRKTAVEVEDSQKKERYVGVKSIIEYEIHNEGNKKNVSEDDQSGSSYIPVTISKDSVTKAYRYGADYVVLPSVLVDQTVYESFPGLDLRGFLNREALPRYFLTSESSFITADTRLGCQSDLMAFSALVDVMLENRKIAVARYVSKKDSEVNMCALCPVLIEHSNINSEKKFVKSLTLCRLPFAEDERVTDFPKLLDRTTTSGVPLKKETDGHQIDELMEQFVDSMDTDELPEIPLGNYYQPIGEVTTDTTLPLPSLNKDQEENKKDPLRIPTVFVYRQQQVLLEWIHQLMINDSREFEIPELPDSLKNKISPYTHKKFDSTKLVEVLGIKKVDKLKLDSELKTELEREKIPDLETLLKRGEQHSRGSPNNSNN
# Variants of: B1
# Conditions: with sir4_yeast SIR4, P11978
# sir4_yeast SIR4, P11978, sequence (P11978 whole entry): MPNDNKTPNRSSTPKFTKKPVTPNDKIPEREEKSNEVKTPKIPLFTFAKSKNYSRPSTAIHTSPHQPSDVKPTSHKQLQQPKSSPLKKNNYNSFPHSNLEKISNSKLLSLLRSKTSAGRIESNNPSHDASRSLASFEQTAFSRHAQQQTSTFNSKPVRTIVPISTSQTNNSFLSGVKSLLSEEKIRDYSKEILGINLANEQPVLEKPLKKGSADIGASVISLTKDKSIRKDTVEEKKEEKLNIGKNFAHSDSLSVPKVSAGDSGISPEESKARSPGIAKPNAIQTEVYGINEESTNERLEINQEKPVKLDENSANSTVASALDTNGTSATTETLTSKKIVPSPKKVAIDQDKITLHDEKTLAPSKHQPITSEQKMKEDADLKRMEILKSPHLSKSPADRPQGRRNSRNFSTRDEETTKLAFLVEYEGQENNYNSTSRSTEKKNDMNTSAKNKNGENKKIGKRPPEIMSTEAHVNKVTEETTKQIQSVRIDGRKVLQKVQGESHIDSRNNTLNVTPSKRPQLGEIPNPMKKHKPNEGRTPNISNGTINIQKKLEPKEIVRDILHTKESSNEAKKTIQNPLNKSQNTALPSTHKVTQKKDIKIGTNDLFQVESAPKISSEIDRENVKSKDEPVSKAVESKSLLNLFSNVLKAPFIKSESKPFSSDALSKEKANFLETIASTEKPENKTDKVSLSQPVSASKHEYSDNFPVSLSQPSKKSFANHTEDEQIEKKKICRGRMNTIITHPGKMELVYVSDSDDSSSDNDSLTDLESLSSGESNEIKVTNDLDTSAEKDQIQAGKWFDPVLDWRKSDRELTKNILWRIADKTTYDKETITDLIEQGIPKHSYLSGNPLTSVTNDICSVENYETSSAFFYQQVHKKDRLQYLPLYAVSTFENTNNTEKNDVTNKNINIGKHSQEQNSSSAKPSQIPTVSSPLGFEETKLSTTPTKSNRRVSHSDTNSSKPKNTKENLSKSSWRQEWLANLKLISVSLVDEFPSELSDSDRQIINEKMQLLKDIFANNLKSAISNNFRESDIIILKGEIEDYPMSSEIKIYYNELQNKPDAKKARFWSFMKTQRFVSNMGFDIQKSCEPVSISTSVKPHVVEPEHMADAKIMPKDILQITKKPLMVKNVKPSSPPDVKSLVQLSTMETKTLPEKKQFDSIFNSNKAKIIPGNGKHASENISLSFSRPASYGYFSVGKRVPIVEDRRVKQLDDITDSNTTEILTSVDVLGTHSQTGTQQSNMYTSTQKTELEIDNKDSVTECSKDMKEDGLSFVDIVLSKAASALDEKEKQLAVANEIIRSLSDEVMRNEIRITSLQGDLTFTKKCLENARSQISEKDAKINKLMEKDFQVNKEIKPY
row,Variant,effect of a mutation on the interaction
1,P437A;F438A,decreasing interaction
2,D441G,decreasing interaction
